Drawing on patent US20180185504A1, this text covers FACS Cell Binding (Fold Above Background), EC50 and EC50, STAT5-luciferase reporter in HEK293/PRLR/STAT5-Luc cells for three substances.

Experiment [1] addresses mouse PRLR construct with an HA tag on HEK293/mPRLR cells (mouse) (UniProt Q08501). Briefly: FACS on HEK293/mPRLR cells.
For experiment [2], the target named is human prolactin (PRL) (human) (UniProt P01236). Briefly: ELISA: dimeric PRLR (3.38 pM to 200 nM) on plate-coated human PRL (1 µg/mL), HRP anti-Fc-gamma detection.
Chain of human prolactin (PRL) (human) (P01236 29-227 limits assumed): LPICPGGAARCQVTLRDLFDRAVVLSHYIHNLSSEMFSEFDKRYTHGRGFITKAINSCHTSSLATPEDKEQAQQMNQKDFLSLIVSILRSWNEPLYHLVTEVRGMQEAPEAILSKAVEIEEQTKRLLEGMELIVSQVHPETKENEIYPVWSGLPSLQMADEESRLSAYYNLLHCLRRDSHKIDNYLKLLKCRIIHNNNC
For experiment [3], the target named is human prolactin receptor (PRLR) on cells (human) (UniProt P16471). Put plainly: cell-based or functional assay.
Chain of human prolactin receptor (PRLR) on cells (human) (P16471 25-622 limits assumed): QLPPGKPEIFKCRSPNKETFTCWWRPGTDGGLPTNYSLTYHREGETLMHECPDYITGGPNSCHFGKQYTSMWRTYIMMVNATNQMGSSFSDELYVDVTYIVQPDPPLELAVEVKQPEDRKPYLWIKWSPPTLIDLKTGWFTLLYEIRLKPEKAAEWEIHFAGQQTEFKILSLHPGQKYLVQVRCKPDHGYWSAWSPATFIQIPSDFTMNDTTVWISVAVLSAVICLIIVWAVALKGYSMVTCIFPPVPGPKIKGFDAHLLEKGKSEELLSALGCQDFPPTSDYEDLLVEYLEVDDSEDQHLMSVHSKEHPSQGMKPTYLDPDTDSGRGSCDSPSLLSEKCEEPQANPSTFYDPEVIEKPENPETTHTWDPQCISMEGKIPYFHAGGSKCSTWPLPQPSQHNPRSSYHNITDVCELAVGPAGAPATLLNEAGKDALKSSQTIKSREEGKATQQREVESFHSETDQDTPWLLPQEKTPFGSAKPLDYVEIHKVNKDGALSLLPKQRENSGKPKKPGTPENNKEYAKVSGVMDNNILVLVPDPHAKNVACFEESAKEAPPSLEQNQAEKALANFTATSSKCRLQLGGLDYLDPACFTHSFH

Chain of mouse PRLR construct with an HA tag on HEK293/mPRLR cells (mouse) (Q08501 20-608): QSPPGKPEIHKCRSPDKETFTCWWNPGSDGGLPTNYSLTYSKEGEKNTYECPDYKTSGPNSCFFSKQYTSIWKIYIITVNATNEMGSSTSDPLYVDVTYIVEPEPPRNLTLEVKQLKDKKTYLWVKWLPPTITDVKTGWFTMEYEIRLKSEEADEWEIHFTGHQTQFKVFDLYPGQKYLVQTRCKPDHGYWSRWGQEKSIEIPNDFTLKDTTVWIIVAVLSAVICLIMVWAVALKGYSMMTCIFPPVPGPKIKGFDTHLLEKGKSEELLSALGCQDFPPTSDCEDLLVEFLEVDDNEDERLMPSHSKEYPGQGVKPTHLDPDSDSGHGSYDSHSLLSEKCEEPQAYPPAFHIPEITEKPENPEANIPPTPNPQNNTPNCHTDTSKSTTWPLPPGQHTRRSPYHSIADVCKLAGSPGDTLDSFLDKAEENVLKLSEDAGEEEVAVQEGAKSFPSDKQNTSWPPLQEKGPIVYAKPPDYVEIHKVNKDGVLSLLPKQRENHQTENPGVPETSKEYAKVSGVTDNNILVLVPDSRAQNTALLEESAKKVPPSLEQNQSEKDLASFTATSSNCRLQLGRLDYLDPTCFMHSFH

The substance Isotype Ctrl I (antibody) displayed an FACS Cell Binding (Fold Above Background) in experiment [1] of 1 fold.

Turning to “dimeric form of cynomolgus monkey (Macaca fascicularis) PRLR (Example 12 ELISA) (Fc fusion)”, in experiment [2], the EC50 came out at 5.7 nM.

“human prolactin (PRL) (from UniProt P01236 29-227) (ligand)” showed an EC50, STAT5-luciferase reporter in HEK293/PRLR/STAT5-Luc cells in experiment [3] of 2.1 nM.
